Test results reported in patent US20170368119A1, “METHODS AND COMPOSITIONS FOR TREATING C-MET ASSOCIATED CANCERS” (YEASTERN BIOTECH CO., LTD, priority 2014, published 2017).

Columns and labels:
HCC372 [1] = experiment: wound healing migration assay, HCC372; type: cell-based, human; settings: JNJ 26.5 nM, 48 hours
Procedure: The HCC cells were cultivated on 24-well plates accompanied with a wound healing culture insert until confluence followed by serum starvation of the cells for 24 hours and the culture insert were then removed. After appropriate treatments, pictures were taken under a phase contrast microscope at indicated times. Quantitative analysis of motility of the HCC cell lines described in Example 1 was performed by directly counting the cells migrating into the blanking area at 48 hours using Image J. Software available from the NIH website. In general, motilities of the mesenchymal HCCs were higher than those of the epithelial ones.
The most motile HCC cell lines identified in Example 2, namely HCC372 and HCC329, were employed for testing the molecular and cellular effects of FIP-gts on HCC, in comparison with those of JNJ-38877605 (abbreviated hereafter as JNJ), which is an ATP-competitive inhibitor for the catalytic activity of c-Met. In the cell proliferation assay, HCC329 and HCC372 cells were untreated or treated with FIP-gts (prepared in Example 4) at 0.5, 1.0 or 2.0 μg/ml for 72 hours. Cell numbers were counted, and the relative doubling times of the respective treated groups were determined by taking the data of the untreated group as 100%. […] Relative migration was analyzed quantitatively by taking the motility of untreated cells (Con) as 1.0. […]

HCC329 [2] = experiment: wound healing migration assay, HCC329; type: cell-based, human
Procedure: The HCC cells were cultivated on 24-well plates accompanied with a wound healing culture insert until confluence followed by serum starvation of the cells for 24 hours and the culture insert were then removed. After appropriate treatments, pictures were taken under a phase contrast microscope at indicated times.
Cell numbers were counted, and the relative doubling times of the respective treated groups were determined by taking the data of the untreated group as 100%. […] Relative migration was analyzed quantitatively by taking the motility of untreated cells (Con) as 1.0.

HCC329 [3] = experiment: HCC329 tumor development and metastasis in SCID mice model; type: in vivo; settings: JNJ 0.5-2.0 nmole/g mouse, intraperitoneal twice a week, 2 months
Procedure: HCC329 cells (approximately 2×10^7) suspended in 100 μl Dulbecco's Modified Eagle Medium (DMEM; Gibco, Grand Island, N.Y., USA) were directly injected into the subserosa of the middle liver lobe of the SCID mice, followed by intraperitoneal administration twice a week with DMEM as a vehicle, vehicle-containing FIP-gts (4.0-20 μg/g mouse) or JNJ (0.5-2.0 nmole/g mouse).
The mice were sacrificed 2 months after injection. Tumor mass was measured and the occurrence of intrahepatic metastasis and/or extrahepatic metastasis was recorded. Nodules with diameter of more than 0.1-0.2 cm observed on the left or right lobes were recognized as secondary tumor foci. […] Extra-hepatic metastasis was defined to be the case where the tumors appearing in organs other than liver such as in intestine. During the animal experiment, the regulations relevant to the care and use of laboratory animals were followed. This was approved by the Institutional Animal Care and Use Committee (IACUC) in Tzu Chi University (No. of consent form: 102080).

[4] = system: p-JNK, p-ERK, p-AKT, p-EGFR in HCC329; experiment: immuno-blotting of signaling molecules, HCC329; type: cell-based, human; settings: within 4 to 16 hours, data not shown
Text: To investigate the molecular mechanism of FIP-gts in suppression of tumor progression of HCCs, the effects of FIP-gts on the activity and/or quantity of the critical members present in c-Met dependent signaling pathway, including c-Met, phosphorylated c-Met (p-c-Met) and downstream effectors p-JNK and p-ERK, were examined in HCCs. […] Total proteins were harvested from the cells and subjected to immuno-blotting analysis using GAPDH as a loading control. Antibodies for p-c-Met, p-JNK, p-ERK and p-paxillin (S178), GAPDH and ERK were purchased from Santa Cruz Biotechnology (California, USA). The band intensities on the blots were quantified with Image J. Software. Relative band intensity of each molecule was calculated, taking the data of untreated HCC372 or HCC329 as 1.0.

HCC372 [5] = experiment: MTT cell viability, HCC372; type: cell-based, human; settings: 48 hours
Procedure: (§1) HCC372 and HCC329 cell lines established in Example 2 were cultured in 24-well plates at 1×10^5 cells/well in Dulbecco's Modified Eagle Medium (DMEM; Sigma, St. Louis, Mo., USA) supplemented with 1% heat-inactivated fetal bovine serum (FBS; Gibco, N.Y., USA) in the presence or absence of FIP-gmi, FIP-fve and FIP-vvo prepared in Example 4 at 1, 2.5 and 5 μg/ml for 48 hours. The supernatant was removed and 25 μl per well of 2.5 mg/ml MTT (3-[4,5-dimethylthiazol-2-yl]-2,5-dipheyltetrazolium bromide; Sigma Chemical Co., St. Louis, Mo., USA) in phosphate-buffered saline (PBS) was added. The plates were incubated at 37° C. for 1 hour to allow the transformation of MTT into water-insoluble formazan crystals. Then, the supernatant was removed and dimethyl sulfoxide (DMSO) was added to all wells and mixed thoroughly to dissolve the dark blue crystals. After a few minutes at room temperature to ensure that all crystals were totally dissolved, the plates were read at 570 nm. Relative survival rate was calculated by taking the number of untreated cells (Con) as 100%. The results are shown in FIGS. 6A and 6B, where the data were representative of 4 reproducible experiments.

HCC329 [6] = experiment: MTT cell viability, HCC329; type: cell-based, human; settings: 48 hours
Procedure: as §1

HCC329 [7] = experiment: transwell migration assay, HCC329; type: cell-based, human; settings: FIP-fve 10 μg/ml, 48 hours
Procedure: (§2) Further, the effects of the three FIPs on migration of both HCC cells were examined. HCC372 and HCC329 cells were seeded on a 24-well transwell migration insert (Nalge Nunc International Corp., Rochester, N.Y., USA) in a complete medium for 24 hours. After treatment with FIP-gmi (3 μg/ml), FIP-fve (10 μg/ml) and FIP-vvo (2.5 μg/ml) for 48 hours, cells that had migrated to the underside of the insert membrane were stained with 0.3% crystal violet. The cells on the topside of the insert membrane were rubbed with a cotton swab. The migrated cells on the underside were imaged using phase contrast microscopy with 200× magnification.

HCC372 [8] = experiment: transwell migration assay, HCC372; type: cell-based, human; settings: FIP-fve 10 μg/ml, 48 hours
Procedure: as §2

[9] = system: c-Met, p-c-Met and p-JNK in HCC372; experiment: western blotting of c-Met dependent signaling (Example 10), HCC372; type: cell-based, human; settings: HCC372 (HGFR-positive)
Procedure: To investigate the molecular mechanism of FIP-gts in suppression of tumor progression of HCCs, the effects of FIP-gts on the activity and/or quantity of the critical members present in c-Met dependent signaling pathway, including c-Met, phosphorylated c-Met (p-c-Met) and downstream effectors p-JNK and p-ERK, were examined in HCCs. HCC329 and HCC372 cells were treated with FIP-gts (2 μg/ml) for 4 or 24 hours. Total proteins were harvested from the cells and subjected to immuno-blotting analysis using GAPDH as a loading control. Antibodies for p-c-Met, p-JNK, p-ERK and p-paxillin (S178), GAPDH and ERK were purchased from Santa Cruz Biotechnology (California, USA). The band intensities on the blots were quantified with Image J. Software. Relative band intensity of each molecule was calculated, taking the data of untreated HCC372 or HCC329 as 1.0. The results were shown in FIGS. 5A and 5B, in which (**) (##) and (*) (#) represent statistical significance (p<0.005 and p<0.05, respectively, n=3) between the indicated inhibitor-treated sample and untreated HCC329 or HCC372 control group.
The experiments described in Example 7 were repeated, except that FIP-gts was replaced with FIP-gmi, FIP-fve and FIP-vvo for treating HCC329 and HCC372. […] In addition, since c-Met was not substantially expressed in HCC329, the inhibitory effects of FIP-gmi, FIP-fve and FIP-vvo on HCC329 must be exerted through blockage on a c-Met independent signaling, such as EGFR-dependent signaling pathway.

| Molecule | suppression of cell migration (HCC372 [1]) [%] | suppression of cell migration (HCC329 [2]; JNJ, 48 hours) [%] | secondary tumors on liver lobes (intra-hepatic metastasis) (HCC329 [3]) | tumor progression of HCC329 (HCC329 [3]) | suppression of cell migration by EGFR inhibitors (HCC329 [2]; wound healing assays, data not shown) [%] | reduction of the level of p-JNK by EGFR inhibitors [4] [%] | suppression of growth (MTT) (HCC372 [5]; 2.5 μg/ml) [%] | suppression of growth (MTT) (HCC372 [5]; 5 μg/ml) [%] | suppression of growth (MTT) (HCC329 [6]; 2.5 μg/ml) [%] | suppression of growth (MTT) (HCC329 [6]; 5 μg/ml) [%] | suppression of cell migration (transwell) (HCC329 [7]) | suppression of cell migration (transwell) (HCC372 [8]) | effect on c-Met [9] | effect on p-JNK [9] | effect on p-c-Met [9] |
| --- | --- | --- | --- | --- | --- | --- | --- | --- | --- | --- | --- | --- | --- | --- | --- |
| Cn1cc(-c2ccc3nnc(C(F)(F)c4ccc5ncccc5c4)n3n2)cn1 [JNJ-38877605, reference compound] | 50 | 15 | secondary tumors were observed on left and right liver lobes | not prominent | – | – | – | – | – | – | – | – | – | – | – |
| Cc1cc(C)c(/C=C2\C(=O)Nc3ccccc32)[nH]1 [SU5416, reference compound] | – | – | – | – | 80 | 30 | – | – | – | – | – | – | – | – | – |
| FIP-fve: fungal immunomodulatory protein from Flammulina veltipes, SEQ ID NO: 2 (protein, Flammulina Velutipes) SATSLTFQLAYLVKKIDFDYTPNWGRGTPSSYIDNLTFPKVLTDKKYSYRVVVNGSDLGVESNFAVTPSGGQTINFLQYNKGYGVADTKTIQVFVVIPDTGNSEEYIIAEWKKT | – | – | – | – | – | – | 13 | 13 | 18 | 22 | marginally suppressed | marginally suppressed | significantly suppressed | significantly suppressed | significantly suppressed |
| FIP-gmi: fungal immunomodulatory protein from Ganoderma microsporum, SEQ ID NO: 6 (protein, listed as Ganoderma microsporum) MSDTALIFTLAWNVKQLAFDYTPNWGRGRPSSFIDTVTFPTVLTDKAYTYRVVVSGKDLGVRPSYAVESDGSQKINFLEYNSGYGIADTNTIQVYVIDPDTGNNFIVAQWN | – | – | – | – | – | – | 23 | 96 | 23 | 94 | – | – | significantly suppressed | significantly suppressed | significantly suppressed |
| FIP-vvo: fungal immunomodulatory protein from Volvariella volvacea, SEQ ID NO: 3 (protein, listed as Volvariella volvacea) STDLTQLLFFIAYNLQKVNFDYTPQWQRGNPSSYIDAVVFPRVLTNKAYQYRVVTGDKDLGIKPSYSVQADGSQKVNLLEYNGGYGVADTTTIKIYVVDPSNGNQYLIAQWK | – | – | – | – | – | – | 48 | 96 | 54 | 95 | – | – | significantly suppressed | significantly suppressed | significantly suppressed |
